Data as given in patent US20250161474A1 (SICHUAN KELUN BIOTECH BIOPHARMACEUTICAL, published 2025).

B1: BsAb 10B (bispecific antibody, human IgG1, kappa)
light: not shown
heavy: not shown
chain: DIQMTQSPSSLSASVGDRVTITCKSSQSLLYTSSQKNYLAWYQQKPGKAPKLLIYWASTRESGVPSRFSGSGSGTDFTLTISSLQPEDFATYYCQQYYAYPWTFGQGTKVEIKGGGGSGGGGSGGGGSEVQLVESGGGLVQPGGSLRLSCAASGYTFTSYWLHWVRQAPGKGLEWVGMIDPSNSDTRFNPNFKDRFTISADTSKNTAYLQMNSLRAEDTAVYYCATYRSYVTPLDYWGQGTLVTVSSGGGGDKTHTCPPCPAPELLGGPSVFLFPPKPKDTLMISRTPEVTCVVVDVSHEDPEVKFNWYVDGVEVHNAKTKPREEQYNSTYRVVSVLTVLHQDWLNGKEYKCKVSNKALPAPIEKTISKAKGQPREPQVCTLPPSREEMTKNQVSLSCAVKGFYPSDIAVEWESNGQPENNYKTTPPVLDSDGSFFLVSKLTVDKSRWQQGNVFSCSVMHEALHNHYTQKSLSLSPGK
notes: Fab-scFv-Fc (KIH) format; anti-EGFR Fab, anti-c-MET scFv; also called bispecific antibody 10B
B2: ADC 56B-A-14 (bispecific antibody)
chain 1: not shown
chain 2: DIQMTQSPSSLSASVGDRVTITCKSSQSLLYTSSQKNYLAWYQQKPGKAPKLLIYWASTRESGVPSRFSGSGSGTDFTLTISSLQPEDFATYYCQQYYAYPWTFGQGTKVEIKGGGGSGGGGSGGGGSEVQLVESGGGLVQPGGSLRLSCAASGYTFTSYWLHWVRQAPGKGLEWVGMIDPSNSDTRFNPNFKDRFTISADTSKNTAYLQMNSLRAEDTAVYYCATYRSYVTPLDYWGQGTLVTVSSGGGGDKTHTCPPCPAPEAAGGPSVFLFPPKPKDTLMISRTPEVTCVVVDVSHEDPEVKFNWYVDGVEVHNAKTKPREEQYNSTYRVVSVLTVLHQDWLNGKEYKCKVSNKALAAPIEKTISKAKGQPREPQVCTLPPSRDELTKNQVSLSCAVKGFYPSDIAVEWESNGQPENNYKTTPPVLDSDGSFFLVSKLTVDKSRWQQGNVFSCSVMHEALHNHYTQKSLSLSPGK
modifications: linker-payload A-14 on reduced Cys sulfhydryls (sites not given); DAR of the whole ADC approximately 4
B3: BsAb 38B (bispecific antibody, human IgG1, kappa, L234A L235A)
light: not shown
heavy: not shown
chain: DIQMTQSPSSLSASVGDRVTITCKSSQSLLYTSSQKNYLAWYQQKPGKAPKLLIYWASTRESGVPSRFSGSGSGTDFTLTISSLQPEDFATYYCQQYYAYPWTFGQGTKVEIKGGGGSGGGGSGGGGSEVQLVESGGGLVQPGGSLRLSCAASGYTFTSYWLHWVRQAPGKGLEWVGMIDPSNSDTRFNPNFKDRFTISADTSKNTAYLQMNSLRAEDTAVYYCATYRSYVTPLDYWGQGTLVTVSSGGGGDKTHTCPPCPAPEAAGGPSVFLFPPKPKDTLMISRTPEVTCVVVDVSHEDPEVKFNWYVDGVEVHNAKTKPREEQYNSTYRVVSVLTVLHQDWLNGKEYKCKVSNKALAAPIEKTISKAKGQPREPQVCTLPPSRDELTKNQVSLSCAVKGFYPSDIAVEWESNGQPENNYKTTPPVLDSDGSFFLVSKLTVDKSRWQQGNVFSCSVMHEALHNHYTQKSLSLSPGK
notes: Fab-scFv-Fc (KIH) format; anti-EGFR Fab, anti-c-MET scFv; also called bispecific antibody 38B
B4: ADC 38B-A-14 (bispecific antibody, human IgG1, kappa, L234A L235A)
light: not shown
heavy: not shown
chain: DIQMTQSPSSLSASVGDRVTITCKSSQSLLYTSSQKNYLAWYQQKPGKAPKLLIYWASTRESGVPSRFSGSGSGTDFTLTISSLQPEDFATYYCQQYYAYPWTFGQGTKVEIKGGGGSGGGGSGGGGSEVQLVESGGGLVQPGGSLRLSCAASGYTFTSYWLHWVRQAPGKGLEWVGMIDPSNSDTRFNPNFKDRFTISADTSKNTAYLQMNSLRAEDTAVYYCATYRSYVTPLDYWGQGTLVTVSSGGGGDKTHTCPPCPAPEAAGGPSVFLFPPKPKDTLMISRTPEVTCVVVDVSHEDPEVKFNWYVDGVEVHNAKTKPREEQYNSTYRVVSVLTVLHQDWLNGKEYKCKVSNKALAAPIEKTISKAKGQPREPQVCTLPPSRDELTKNQVSLSCAVKGFYPSDIAVEWESNGQPENNYKTTPPVLDSDGSFFLVSKLTVDKSRWQQGNVFSCSVMHEALHNHYTQKSLSLSPGK
modifications: linker-payload A-14 on reduced Cys sulfhydryls (sites not given); DAR of the whole ADC approximately 6
B5: BsAb 49B (bispecific antibody, human IgG1, kappa, L234A L235A)
light: DIQMTQSPSSLSASVGDRVTITCKSSQSLLYTSSQKNYLAWYQQKPGKAPKLLIYWASTRESGVPSRFSGSGSGTDFTLTISSLQPEDFATYYCQQYYAYPWTFGQGTKVEIKRTVAAPSVFIFPPSDEQLKSGTASVVCLLNNFYPREAKVQWKVDNALQSGNSQESVTEQDSKDSTYSLSSTLTLSKADYEKHKVYACEVTHQGLSSPVTKSFNRGEC
heavy: not shown
chain: AIQLTQSPSSLSASVGDRVTITCRASQDISSALVWYQQKPGKAPKLLIYDASSLESGVPSRFSGSESGTDFTLTISSLQPEDFATYYCQQFNSYPLTFGGGTKVEIKGGGGSGGGGSGGGGSQVQLVESGGGVVQPGRSLRLSCAASGFTFSTYGMHWVRQAPGKGLEWVAVIWDDGSYKYYGDSVKGRFTISRDNSKNTLYLQMNSLRAEDTAVYYCARDGITMVRGVMKDYFDYWGQGTLVTVSSGGGGDKTHTCPPCPAPEAAGGPSVFLFPPKPKDTLMISRTPEVTCVVVDVSHEDPEVKFNWYVDGVEVHNAKTKPREEQYNSTYRVVSVLTVLHQDWLNGKEYKCKVSNKALAAPIEKTISKAKGQPREPQVCTLPPSRDELTKNQVSLSCAVKGFYPSDIAVEWESNGQPENNYKTTPPVLDSDGSFFLVSKLTVDKSRWQQGNVFSCSVMHEALHNHYTQKSLSLSPGK
notes: Fab-scFv-Fc (KIH) format; anti-c-MET Fab, anti-EGFR scFv; also called BsB 49B; bispecific antibody 49B
B6: ADC 55B-A-14 (bispecific antibody, human IgG1, kappa, L234A L235A)
light: DIQMTQSPSSLSASVGDRVTITCKSSQSLLYTSSQKNYLAWYQQKPGKAPKLLIYWASTRESGVPSRFSGSGSGTDFTLTISSLQPEDFATYYCQQYYAYPWTFGQGTKVEIKRTVAAPSVFIFPPSDEQLKSGTASVVCLLNNFYPREAKVQWKVDNALQSGNSQESVTEQDSKDSTYSLSSTLTLSKADYEKHKVYACEVTHQGLSSPVTKSFNRGEC
heavy: not shown
chain 1: AIQLTQSPSSLSASVGDRVTITCRASQDISSALVWYQQKPGKAPKLLIYDASSLESGVPSRFSGSESGTDFTLTISSLQPEDFATYYCQQFNSYPLTFGGGTKVEIKSSASTKGPSVFPLAPSSKSTSGGTAALGCLVKDYFPEPVTVSWNSGALTSGVHTFPAVLQSSGLYSLSSVVTVPSSSLGTQTYICNVNHKPSNTKVDKKVEPKSC
chain 2: QVQLVESGGGVVQPGRSLRLSCAASGFTFSTYGMHWVRQAPGKGLEWVAVIWDDGSYKYYGDSVKGRFTISRDNSKNTLYLQMNSLRAEDTAVYYCARDGITMVRGVMKDYFDYWGQGTLVTVSSASVAAPSVFIFPPSDEQLKSGTASVVCLLNNFYPREAKVQWKVDNALQSGNSQESVTEQDSKDSTYSLSSTLTLSKADYEKHKVYACEVTHQGLSSPVTKSFNRGECDKTHTCPPCPAPEAAGGPSVFLFPPKPKDTLMISRTPEVTCVVVDVSHEDPEVKFNWYVDGVEVHNAKTKPREEQYNSTYRVVSVLTVLHQDWLNGKEYKCKVSNKALAAPIEKTISKAKGQPREPQVCTLPPSRDELTKNQVSLSCAVKGFYPSDIAVEWESNGQPENNYKTTPPVLDSDGSFFLVSKLTVDKSRWQQGNVFSCSVMHEALHNHYTQKSLSLSPGK
modifications: linker-payload A-14 on reduced Cys sulfhydryls (sites not given); DAR of the whole ADC approximately 8
B7: BsAb 07B (bispecific antibody, human IgG1, kappa)
light: DIQMTQSPSSLSASVGDRVTITCKSSQSLLYTSSQKNYLAWYQQKPGKAPKLLIYWASTRESGVPSRFSGSGSGTDFTLTISSLQPEDFATYYCQQYYAYPWTFGQGTKVEIKRTVAAPSVFIFPPSDEQLKSGTASVVCLLNNFYPREAKVQWKVDNALQSGNSQESVTEQDSKDSTYSLSSTLTLSKADYEKHKVYACEVTHQGLSSPVTKSFNRGEC
heavy: not shown
chain: AIQLTQSPSSLSASVGDRVTITCRASQDISSALVWYQQKPGKAPKLLIYDASSLESGVPSRFSGSESGTDFTLTISSLQPEDFATYYCQQFNSYPLTFGGGTKVEIKGGGGSGGGGSGGGGSQVQLVESGGGVVQPGRSLRLSCAASGFTFSTYGMHWVRQAPGKGLEWVAVIWDDGSYKYYGDSVKGRFTISRDNSKNTLYLQMNSLRAEDTAVYYCARDGITMVRGVMKDYFDYWGQGTLVTVSSGGGGDKTHTCPPCPAPELLGGPSVFLFPPKPKDTLMISRTPEVTCVVVDVSHEDPEVKFNWYVDGVEVHNAKTKPREEQYNSTYRVVSVLTVLHQDWLNGKEYKCKVSNKALPAPIEKTISKAKGQPREPQVCTLPPSREEMTKNQVSLSCAVKGFYPSDIAVEWESNGQPENNYKTTPPVLDSDGSFFLVSKLTVDKSRWQQGNVFSCSVMHEALHNHYTQKSLSLSPGK
notes: Fab-scFv-Fc (KIH) format; anti-c-MET Fab, anti-EGFR scFv; expressed in CHO-K1; also called bispecific antibody 07B
B8: ADC 07B-A-05 (bispecific antibody, human IgG1, kappa)
light: DIQMTQSPSSLSASVGDRVTITCKSSQSLLYTSSQKNYLAWYQQKPGKAPKLLIYWASTRESGVPSRFSGSGSGTDFTLTISSLQPEDFATYYCQQYYAYPWTFGQGTKVEIKRTVAAPSVFIFPPSDEQLKSGTASVVCLLNNFYPREAKVQWKVDNALQSGNSQESVTEQDSKDSTYSLSSTLTLSKADYEKHKVYACEVTHQGLSSPVTKSFNRGEC
heavy: not shown
chain: AIQLTQSPSSLSASVGDRVTITCRASQDISSALVWYQQKPGKAPKLLIYDASSLESGVPSRFSGSESGTDFTLTISSLQPEDFATYYCQQFNSYPLTFGGGTKVEIKGGGGSGGGGSGGGGSQVQLVESGGGVVQPGRSLRLSCAASGFTFSTYGMHWVRQAPGKGLEWVAVIWDDGSYKYYGDSVKGRFTISRDNSKNTLYLQMNSLRAEDTAVYYCARDGITMVRGVMKDYFDYWGQGTLVTVSSGGGGDKTHTCPPCPAPELLGGPSVFLFPPKPKDTLMISRTPEVTCVVVDVSHEDPEVKFNWYVDGVEVHNAKTKPREEQYNSTYRVVSVLTVLHQDWLNGKEYKCKVSNKALPAPIEKTISKAKGQPREPQVCTLPPSREEMTKNQVSLSCAVKGFYPSDIAVEWESNGQPENNYKTTPPVLDSDGSFFLVSKLTVDKSRWQQGNVFSCSVMHEALHNHYTQKSLSLSPGK
modifications: linker-payload A-05 on reduced Cys sulfhydryls (sites not given); DAR of the whole ADC approximately 6

Experiments:
human c-MET [1] = molecular target: T1, human c-MET (human, UniProt P08581 25-1390); experiment: flow cytometry on EBC-1 cells (highly express c-MET)
T1 construct: whole, on cells; also called tyrosine protein kinase Met; hepatocyte growth factor receptor
T1 sequence (P08581 25-1390): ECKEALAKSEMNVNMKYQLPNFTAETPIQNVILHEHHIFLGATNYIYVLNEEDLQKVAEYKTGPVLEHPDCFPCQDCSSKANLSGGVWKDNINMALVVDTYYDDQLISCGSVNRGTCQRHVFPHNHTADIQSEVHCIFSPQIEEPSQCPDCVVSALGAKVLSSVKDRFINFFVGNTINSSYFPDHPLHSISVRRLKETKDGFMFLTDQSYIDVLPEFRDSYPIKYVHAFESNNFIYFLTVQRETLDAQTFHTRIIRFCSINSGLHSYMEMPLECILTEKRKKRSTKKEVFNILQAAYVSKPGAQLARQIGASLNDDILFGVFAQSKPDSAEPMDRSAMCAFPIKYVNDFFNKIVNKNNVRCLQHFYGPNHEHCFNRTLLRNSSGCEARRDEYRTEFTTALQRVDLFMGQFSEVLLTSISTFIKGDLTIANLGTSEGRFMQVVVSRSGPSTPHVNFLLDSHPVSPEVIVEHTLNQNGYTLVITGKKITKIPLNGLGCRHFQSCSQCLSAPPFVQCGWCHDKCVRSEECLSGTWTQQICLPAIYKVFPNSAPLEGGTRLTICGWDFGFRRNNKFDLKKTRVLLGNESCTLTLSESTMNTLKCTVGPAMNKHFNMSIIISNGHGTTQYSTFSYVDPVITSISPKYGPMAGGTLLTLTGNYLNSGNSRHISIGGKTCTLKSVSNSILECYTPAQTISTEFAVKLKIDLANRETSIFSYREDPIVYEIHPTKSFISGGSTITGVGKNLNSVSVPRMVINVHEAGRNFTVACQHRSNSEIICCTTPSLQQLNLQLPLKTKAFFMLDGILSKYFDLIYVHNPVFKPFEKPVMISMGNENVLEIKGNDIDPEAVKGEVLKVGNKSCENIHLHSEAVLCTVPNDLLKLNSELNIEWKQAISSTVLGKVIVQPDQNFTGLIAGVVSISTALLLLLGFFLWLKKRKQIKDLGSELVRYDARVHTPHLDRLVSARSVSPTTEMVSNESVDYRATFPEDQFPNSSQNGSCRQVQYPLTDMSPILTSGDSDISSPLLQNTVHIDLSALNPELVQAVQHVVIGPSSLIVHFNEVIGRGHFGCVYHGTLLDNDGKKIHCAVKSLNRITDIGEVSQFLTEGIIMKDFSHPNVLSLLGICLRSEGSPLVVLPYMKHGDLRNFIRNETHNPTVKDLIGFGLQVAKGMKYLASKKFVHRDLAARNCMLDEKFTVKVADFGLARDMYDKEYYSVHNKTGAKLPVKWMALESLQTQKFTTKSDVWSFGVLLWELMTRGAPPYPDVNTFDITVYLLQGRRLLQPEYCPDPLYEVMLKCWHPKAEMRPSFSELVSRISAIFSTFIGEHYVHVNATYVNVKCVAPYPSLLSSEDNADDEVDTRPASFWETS
Text: (§1) A flow cytometer (Beckman, model Cytoflex) was used to detect the interaction between anti-human EGFR/c-MET bispecific antibodies and their conjugates and human gastric cancer cells MKN45 (Nanjing Cobioer Biosciences) and human gastric cancer cells overexpressing human EGFR MKN45-EGFR (Kelun-Biotech), human lung squamous cell carcinoma EBC-1 (Nanjing Cobioer Biosciences), human lung squamous cell carcinoma EBC-1-EGFR overexpressing human EGFR (Kelun-Biotech), human non-small cell lung cancer cell HCC827 (ATCC™), and human epidermal squamous cell carcinoma cell A431 (Nanjing Cobioer Biosciences). The protocol was as follows.
(§2) The adherent cells were digested with Trypsin-EDTA solution (0.25%) (Shanghai BasalMedia) and the cell density adjusted to 4.0×10⁶ per mL. The cells were washed twice with 1% BSA and resuspended in 1% BSA solution. Then 50 μL cell suspension was added to each well of a 96-well plate (the number of cells was 2×10⁵ per well). The antibody and its conjugate were diluted with 1% BSA (final concentration 10 µg/mL, 3-fold gradient dilution, a total of 11 concentration points). Then 50 μL of the diluted antibody and ADC were added to the wells of the 96-well plate and the plate was incubated at 4° C. for 60 minutes. The wells of the 96-well plate were then washed twice with 1% BSA, 50 μL of diluted secondary antibody was added to each well, and the 96-well plate was incubated at 4° C. for 30 minutes. Then the cells were washed twice with 1% BSA, and the cells were resuspended in 200 μL of 1% BSA and subjected to flow cytometry detection.

human c-MET [2] = molecular target: T1, human c-MET; experiment: flow cytometry on MKN45 cells (highly express c-MET)
Text: as §1, §2

human c-MET [3] = molecular target: T1, human c-MET; experiment: cell-based or functional assay

Binder | EC50 (human c-MET [1]) | EC50 (human c-MET [2]) | IC50, in vitro cell killing (CCK8) on EBC-1 cells (human c-MET [3]) | IC50, in vitro cell killing (CCK8) on MKN45 cells (human c-MET [3])
B1 | 1.51 nM | 1.1 nM | – | –
B2 | – | – | 2.95 nM | 1.17 nM
B3 | – | 1.16 nM | – | –
B4 | 1.29 nM | – | 1.03 nM | 0.3 nM
B5 | 1.32 nM | 0.34 nM | – | –
B6 | – | – | 0.42 nM | 0.4 nM
B7 | 1.46 nM | – | – | –
B8 | 1.47 nM | – | 0.48 nM | –
